Among the data in US20250011363A1, “OPTIMIZED SHORTENED PEPTIDE THAT BINDS TO ACETYLCHOLINE RECEPTOR, AND USE THEREOF” (SKINMED CO., LTD., priority 2021, published 2025) are Binding affinity (RU) values, retold here.

The assay has as its target acetylcholine receptor. Description: SPR, AchR immobilised, peptide 10 uM. A general note: In SPR one partner is held on a chip, and binding of the other changes the refractive index at the surface.

With KKPWKR [6mer-1-1087], the Binding affinity (RU) worked out at 27 RU. As for KRDHIK [6mer-1-664], the figure is 26 RU; as for KRDKAK [6mer-1-1065], 23 RU.

In turn, RRKWGR [6mer-1-1077] returned a Binding affinity (RU) of 24 RU. As for KRTCGR [6mer-1-1074], the figure is 24 RU. As for KKCTPR [6mer-1-1072], the figure is 36 RU; as for RKTKAK [6mer-1-1071], 38 RU. On to KKCCPK [6mer-1-1084], for which the Binding affinity (RU) was 25 RU. As for RRKHWK [6mer-1-1067], the figure is 38 RU; as for RKHPVK [6mer-1-1079], 25 RU.

Molecule KKMTER [6mer-1-662] had a Binding affinity (RU) of 20 RU.

RKPKWR [6mer-1-661] came in with a Binding affinity (RU) of 14 RU. As for RRPDIK [6mer-1-1078], the Binding affinity (RU) amounted to 25 RU. Molecule KREAMK [6mer-1-1085] came in with a Binding affinity (RU) of 33 RU. KRYHIR [6mer-1-1068] showed a Binding affinity (RU) of 31 RU.

In turn, KRPSNK [6mer-1-1081] returned a Binding affinity (RU) of 23 RU. As for RKEANK [6mer-1-1086], the figure is 22 RU; as for KKPSVK [6mer-1-1075], 38 RU; as for KKCDGK [6mer-1-665], 21 RU.

RKEDVK [6mer-1-1066] returned a Binding affinity (RU) of 23 RU. As for KKTCDR [6mer-1-1082], the figure is 37 RU; as for KKFKDR [6mer-1-663], 26 RU; as for RKYMWK [6mer-1-1073], 27 RU. In the case of KKHNMR [6mer-1-1080] it was 38 RU; in that of KKTCDK [6mer-1-1070], 24 RU.

KKIWAR [6mer-1-1069] came in with a Binding affinity (RU) of 23 RU.

Take RKKEPK [6mer-1-1076]: the Binding affinity (RU) is 43 RU.

Take KKNAVR [6mer-1-1083]: the Binding affinity (RU) worked out at 36 RU.
